Assay results taken from patent US20250026813A1 (published 2025).

Assays:
[1] = target: RBD domain of the spike protein of SARS-CoV-2 virus (Acro Biosystems SPD-C52H3) (SARS-CoV-2, UniProt P0DTC2 319-537)
[2] = target: T1, RBD domain of the spike protein of SARS-CoV-2 virus (Acro Biosystems SPD-C52H3) (SARS-CoV-2, UniProt P0DTC2 319-537); assay: Affinity (SPR) by Octet; antigen not named, taken from the epitope column
T1 construct: domain: RBD domain

Binder	IC50 [1] [nM]	Kd [2] [nM]
IMPI-029 (antibody, V domains shown) VH: EVQLVESGGGLIQPGGSLRLSCAASGVTVSSNYMNWVRQAPGKGLEWVSVIYSGGSTYYADSVKGRFTISRDNSKNTLFLQMNSLRAEDSAVYYCARDLGPYGVDVWGQGTTVTVSS VL: DIQLTQSPSFLSASVGDRVTITCWASQGISSYLAWYQQKPGKAPKLLIYAASTLQSGVPSRFSGSGSGTEFTLTISSLQPEDFATYYCQELNSYPLTFGQGTRLEIK	1.26	–
IMPI-002 (antibody, V domains shown) VH: EVQLVESGGGLIQPGGSLRLSCAASGVTVSSNYMSWVRQAPGKGLEGVSVIYSGGSTYYADSVKGRFTISRDNSKNTLYLQMNSLRAEDTAVYYCARDTVVYGMDVWGQGTTVTVSS VL: DIQLTQSPSFLSASVGDRVTITCWASQGISSYLAWYQQKPGKAPKLLIYAASTLQSGVPSRFSGSGSGTEFTLTISSLQPEDFATYYCQQLNSYPLTFGGGTKVEIK	8.15	–
IMPI-005 (antibody, V domains shown) VH: EVQLVESGGGLIQPGGSLRLSCAASGFTVSSNYMNWVRQAPGKGLEWVSVIYSGGSTYYADSVKGRFTISRDNSKNTLFLQMNSLRAEDSAVYYCARDLGPYGVDVWGQGTTVTVSS VL: DIQLTQSPSFLSASVGDRVTITCWASQGISSYLAWYQQKPGKAPKLLIYAASTLQSGVPSRFSGSGSGTEFTLTISSLQPEDFATYYCQELNSYPLTFGQGTRLEIK	3.18	–
IMPI-021 (antibody, V domains shown) VH: EVQLVESGGGLIQPGGSLRLSCAASGVTVSSNYMSWVRQAPGKGLEWVSVIYSGGSTFYADSVKGRFTISRDNSKNTLYLQMNSLRAEDTAVYYCARDLSYYGMDVWGQGTTVTVSS VL: DIQLTQSPSFLSASVGDRVTITCWASQGISSYLAWYQQKPGKAPKLLIYAASTLQSGVPSKFSGSGSGTEFTLTISSLQPEDFATYYCQQLNSYPCSFGQGTKLEIK	4.87	–
IMPI-056 (antibody, V domains shown) VH: EVQLVESGGGLIQPGGSLRLSCAASGLTVSSNYMNWVRQAPGKKLEWVSVIYSGGSTFYADSVRGRFTISRDNSKNTLFLQMNSLRAEDSAVYYCARDLGPYGVDVWGQGTTVTVSS VL: DIQLTQSPSFLSASVGDRVTITCWASQGISSYLAWYQQKPGKAPKLLIYAASTLQSGVPSRFSGSGSGTEFTLTISSLQPEDFATYYCQQLNSYPLTFGQGTRLEIK	1.93	–
IMPI-047 (antibody, V domains shown) VH: EVQLVESGGGLIQPGGSLRLSCAASGFTVSSNYMNWVRQAPGKGLEWVSVIYSGGSTYYADSVKGRFTISRDNSKNTLYLQMNSLRTEDTAVYYCARDLVAYGMDVWGQGTTVTVSS VL: DIQLTQSPSFLSASVGDRVTITCWASQGISSYLAWYQQKPGKAPKVLIYAASTLQSGVPSRFSGSGSGTEFTLTISSLQPEDFATYYCQLLNSNPLTFGGGTKVEIK	3.36	–
IMPI-055 (antibody, V domains shown) VH: QVQLVQSGAEVKKPGASVKVSCKASGYTFTSYDINWVRQATGQGLEWMGWMNPNSGNTGYAQKFQGRVTMTRDTSINTAYMELSSLRSEDTAVYFCARGGRYCSDVTCYSGEPFDYWGQGTLVTVSS VL: EIMLTQSPDFQSVTPKEKVTITCRASQSIGSSLHWYQQKPDQSPKLLIKFASQSISGVPSRFSGSGSGTDFTLTINSLEAEDAAAYYCHQSSSLPHTFGPGTKVEIK	3.39	–
IMPI-054 (antibody, V domains shown) VH: EVQLVESGGGLIQPGGSLRLSCAASGLTVSSNYMSWVRQAPGKGLEWVSIIYSGGSTYYADSVKGRFTISRDNSKNTLYLQMNSLRAEDTAVYYCARLGGYYYYGMDVWGQGTTVTVSS VL: DIQMTQSPSSLSASVGERVTITCQASQDIRNYLNWYQKKPGKAPKLLIYDSSNLETGVPSRFSGSGSGTDFTFTISSLQPEDIATYYCQQYDNLPITFGQGTRLEIK	2.28	–
IMPI-042 (antibody, V domains shown) VH: EVQLVESGGGLIQPGGSLRLSCAASGLTVSSNYMSWVRQAPGKGLEWVSIIYSGGSTYYADSVKGRFTISRDNSKNTLYLQMNSLRAEDTAVYYCARLGGYYYYGMDVWGQGTTVTVSS VL: DIQMTQSPSSLSASVGERVTITCQASQDIRNYLNWYQKKPGKAPKLLIYDSSNLETGVPSRFSGGGSGTDFTFTISSLQPEDIATYYCQQYDNLPITFGQGTRLEIK	5.54	–
IMPI-017 (antibody, V domains shown) VH: EVQLVESGGGLIQPGGSLRLSCAAAGLTVSSNYMNWVRQVPGKGLEWVSVIYSGGSTYYADSVKGRFTISRDNSKNTLYLQMNSLRAEDTAVYYCARDLGTLGMDVWGQGTTVTVSS VL: DIQLTQSPSFLSASVGDRVTITCWASQGISTYLAWYQQKPGKAPKLLIYAASTLQSGVPSRFSGSGSGTEFTLTISSLQPEDFATYYCQQLNSYLPTFGQGTKVEIK	0.832	–
IMPI-059 (antibody, V domains shown) VH: EVQLVESGGGLIQPGGSLRLSCAASGFTVSSIYMSWVRQAPGKGLEWVSIIYSRGSTDYADSVKGRFTISRDISKNTLYLQMNSLRAEDTAVYYCARDGTMVRGVHAFDIWGQGTMVTVSS VL: DIQMTQSPPSLSASIGDRVTITCQASQDISNYLNWYQQKPGKAPKLLIYDASNLETGVPSRFSGSGSGTDFTLTISNLQPEDIVTYYCQQYDNLPSSFGQGTKLEIK	2.02	–
IMPI-037 (antibody, V domains shown) VH: not shown VL: DIQLTQSPSFLSASVGDRVTITCWASQGINSYLAWYQQKPGKAPKLLIYAASTLQSGVPSRFSGSGSGTEFTLTISSLQPEDFTTYYCQQFNDYPRTFGPGTKVEIK	7.76	–
YANG-1110 (antibody, V domains shown) VH: QVQLAESGGGVVQPGRSLRLSCVVSGFTFSNYGMHWVRQAPGKGLEWVVFISNDGSNEDFVDSVKGRFTISRDNSKNTLYLQMNSLRAEDTAVYYCAKGGYFYGSGNYYYYYGMDVWGQGTTVTVSS VL: QPVLTQSSSASASLGSSVKLTCTLSSVHSNHIIAWHQQQPGKAPRYLMKLEGSGRYSKGSGVPDRFSGSSSEADRYLTISNLQSEDEADYYCETWDNNTYVFGSGTKVTVL	–	< 0.1
YANG-1111 (antibody, V domains shown) VH: EVQLVESGGGLIQPGGSLRLSCAASGFTFSSYSINWVRQAPGKGLEWVSFISGSSTTIYYADSVKGRFTISRDSAKNSLYLQMNSLRDEDTAVYYCARGLRSSIAPRPDYFDSWGQGILVTVSS VL: SYVLTQPPSVSVAPGKTARITCGGNNIGSKGVHWYQQKPGQAPVLVIYYDSDRPSGIPERFSGSNSGNTATLTISRVEAGDEADYSCQVWDSSSDHPVFGGGTKLTVQ	–	< 0.1
YANG-1112 (antibody, V domains shown) VH: QITLKESGPTLVKPTQTLTLTCTFSGFSLSTGGVAVGWIRQPPGKALEWLAIIYWDDDKRYSPSLKSRLTITKDTSKNQVVLTMTNMDPVDTATYYCAHWGKDSFDIWGQGTMVTVSS VL: SYELTQPPSVSVSPGQTARITCSGDALPRKYAYWYQQKSGQAPVLVIYEDNNRPSGIPERFSGSSSGTTATLTVSGAQVEDEADYYCYSTDTSGYVVFGGGTKLTVL	–	< 0.1
YANG-1119 (antibody, V domains shown) VH: EVQLVESGGGLVKPGGSLRLSCAASGFTFSSYSMNWVRQAPGKGLEWVSSISTGSSYIFYADSVKGRFTISRDNAKNSLYLQMNSLRAEDTAVYYCAKTGDLPFFDYWGQGTLVTVSS VL: QSALTQPASVSGSPGQSITISCTGTSSDVGRYNYVSWYQQHPGKAPKLMIYEVSNRPSGVSNRFSGSKSGNTASLTISGLQAEDEADYYCSSYTSSSTMVFGGGTKLTVL	–	< 0.1
YANG-1113 (antibody, V domains shown) VH: EVQLVESGGGLVKPGGSLRLSCAASGFTFSSYSMNWVRQAPGKGLEWVSSISTGSSYIFYADSVKGRFTMSRDNAKNSLYLQMNSLRAEDTAVYYCAKTGDLPFFDYWGQGTPVTVSS VL: QSALTQPASVSGSPGQSITISCTGTSSDVGRYNYVSWYQQHPGKAPKLMIYEVSNRPSGVSNRFSGSKSGNTASLTISGLQAEDEADYYCSSYTSSSTMVFGGGTKLTVL	–	< 0.1
YANG-1114 (antibody, V domains shown) VH: EVHLVESVGGLVKPGGSLRLSCAASGFTFSSYSMNWVRQAPGKGLEWVSSISTGSSYIFYADSVKGRFTISRDNAKNSLYLQMNSLRAEDTAVYYCAKTGDLPFFDYWGQGTLVTVSS VL: QSALTQPASVSGSPGQSITISCTGTSSDVGRYNYVSWYQQHPGKAPKLMIYEVSNRPSGVSNRFSGSKSGNTASLTISGLQAEDEADYYCSSYTSSSTMVFGGGTKLTVL	–	< 0.1
YANG-1115 (antibody, V domains shown) VH: EVQLVESGGGLVKPGGSLRLSCAASGFTFSSYSMNWVRQAPGKGLEWVSSISTGSSYIFYADSVKGRFTISRDNAKNSLYLQMNSLRAEDTAVYYCAKTGDLPFFDYWGQGTLVTVSS VL: QSALTQPASVSGSPGQSITISCTGTSSDVGRYNYVSWYQQHPGKAPKLMIYEVSNRPSGVSNRFSGSKSGNTASLTISGLQAEDEADYYCSSYTSSSTMVFGGGTKLSVL	–	< 0.1
YANG-1116 (antibody, V domains shown) VH: EVQLVESGGGLVKPGGSLRLSCEASGFNFRSYALNWVRQAPGKGLEWVSSISTGSSYIFYADSVKGRFTISRDNAKNSLSLQMNSLRAEDTAVYYCAKTGDLPFFDYWGQGTLVTVSS VL: QSALTQPASVSGSPGQSITISCTGTSSDVGRYNYVSWYQQHPGKAPKLMIYEVSNRPSGVSNRFSGSKSGNTASLTISGLQAEDEADYYCISYTSSSTMVFGGGTKLTVL	–	< 0.1
YANG-1117 (antibody, V domains shown) VH: EVQLVESGGGLVKPGGSLRLSCAASGFTFSSYSVNWVRQAPGKGLEWVSSISTGSSYIFYADSVKGRFTISRDNAKNSLYLQMNSLRAEDTAVYYCVKTGDLPFFDYWGQGTLVTVSS VL: QSALTQPASVSGSPGQSITISCTGTRSDVGRYNYVSWYQQHPGKAPKLMIYEVTNRPSGVSNRFSGSKSGNTASLTISGLQAEDEADYYCSSYTNNSTMVFGGGTKLTVL	–	< 0.1
YANG-1118 (antibody, V domains shown) VH: EVQLVESGGGLVKPGGSLRLSCAASGFTFSSYALNWVRQAPGKGLEWVSSISTGSSYIFYADSVKGRFTISRDNAKHSLSLQMNSLRAEDTAVYYCAKTGDLPFFDYWGQGTLVTVSS VL: QSALTQPASVSGSPGQSITISCTGTSSDVGRYNYVSWYQQHPGKAPKLMIYEVSNRPSGVSNRFSGSKSGNTASLTISGLQAEDEADYYCISYTSSSTMVFGGGTKLTVL	–	< 0.1
